According to patent US20210292393A1 (published 2021):

Molecular target: SARS-CoV-2 full length spike protein (wild type) (SARS-CoV-2, UniProt P0DTC2 14-1273)

Binder	median fluorescence intensity, fold over isotype control [fold over isotype]
antibody 264 (antibody, V domains shown) VH: QVHLVESGGGVVQPGRSLRLSCAASGFTLTSYAMHWVRQAPGKGLEWVALISYDGSVKKYAESVKGRITVSGDNSRNTLHLQINTLRADDTAVYYCVRGGVSGPNSFDLWGQGTMVTVSS VL: DVVMTQSPLSLPVTLGQPASISCRSSQSLEYSDGNTYVNWFQQRPGQSPRRLIYQVSNRASGVPDRFSGSGSGTDFTLQISRVEAEDVGIYYCMQGTHWPVTFGQGTKVEIK	10.3
antibody 266 (antibody, V domains shown) VH: QVQLVESGGGVVQPGRSLRLSCAASGFNLSNYAMHWVRQPSGKGLEWVSLISYDGSIKYYTDSVKGRFTVSGDNSKNTLFLQMNSLRPDDSALYYCVRGGVSGPNSFDMWGQGTTVTVSS VL: DVVMTQSPLSLPVTLGQPASISCRSSQSLVYSDGNTYVNWFQQRPGQSPRRLIYQVSIRASGVPDRFSGSGSGTDFALKISRVEAEDVGVYYCMQGTHWPVTFGQGTKVEIK	10.3
antibody 303 (antibody, V domains shown) VH: QVQLVESGGGVVQPGRSLRLSCAASGFNLSSYAMHWVRQASGKGLEWVSLISYDGSIKYYADSVKGRFTVSGDNSKNMLFLQMNSLRADDSALYYCVRGGVSGPNAFDIWGQGTTVTVSS VL: not shown	9.59
antibody 316 (antibody, V domains shown) VH: QVHLVESGGGVVQPGRSLRLSCAASGFTLTAYAMHWVRQAPGKRLEWVALISYDGSVKKYADSVKGRITVSGDTSTNTLHLQMNSLRADDTAVYYCVRGGVSGPNSFDLWGQGTMVTVSS VL: DVVMTQSPLSLPVTLGQPASMSCRSSQSLEYSDGNTYVNWFHQRPGQSPRRLIYKVSYRDSGVPDRFSGSGSGTDFTLQISRVEAEDVGIYYCMQGTHWPVTFGQGTKVEIK	10.7
antibody 276 (antibody, V domains shown) VH: QVQLQESGPGLVKPSQTLSLTCTVSGDSISSGGYYWSWIRQHPGKGLEWIGYIYYSGSAYYNPSLKSRVTISLDTSKNQFSLKLSSVTAADTAVYYCARDSVAGFSIFDYWGQGTLVTVSS VL: SSELTQDPAVSVALGQTVRITCQGDSLRSYYASWYQQKPGQAPVRVIYGKNNRPSGIPDRFSGSSSGNTASLTITGAQAEDEADYYCNSWDSSGNHVVFGGGTKLTVL	9.24
antibody 300 (antibody, V domains shown) VH: QVQLVESGGGVVQPGRSLTLSCAASGFTFSSYAMHWVRQAPGKGLEWVALISYDGNNKYYADSVKGRFTFSRDNSKNTLYLQMNSLRAEDTAVYYCARTNSGSYRTAFDYWGQGTLVTVSS VL: DIQMTQSPSTLSASVGDRVTITCRASQSISIWLAWYQQKPGKAPKLLIYKASSLESGVPSRFSGSGSGTEFTLTISSLQPDDFATYYCQQYNSLWTFGQGTKVEIK	9.71
antibody 265 (antibody, V domains shown) VH: EVQLVQSGAEVKKPGATVKVSCKFSGDTFSHYYIHWVQQAPGKGLEWMGLVDPQDGESEYAQKFQGKVTITADTSIDTSYLEVTSLRFDDTAFYFCATRGMSGAFDRWGQGTLVTVSS VL: DIVMTQSPDSLAVSLGERATINCKSSQSILSTSNNKNYLAWYQQKPGQPPKLLIYWASTRESGVPDRFSGGGSGTDFTLTISSLQAEDVAVYYCQQYYRTAYTTPIYTFGQGTKLEIK	21.4
antibody 295 (antibody, V domains shown) VH: QVQLQESGPGLVKPSQTLSLTCTVSGGSISSSDYYWSWIRQPPGKGLEWIGYIYYSGSTYYNPSLKSRVTISVDTSKNQFSLKLSSVTAADTAVYYCARVVGYCSSTSCYVDYWGQGTLVTVSS VL: EIVLTQSPATLSLSPGERVTLSCRASQSVSSYLAWYQQKPGQAPRLLIYDASNRATGIPARFSGSGSGTDFTLTISSLEPEDFAVYYCQQRSNWPPGLTFGGGTKVEIK	9.67
antibody 294 (antibody, V domains shown) VH: EVQLVESGGGLVQPGGSLRLSCAASGFTVSSNYMNWVRQAPGKGLEWVSVIYSGGSTYYADSVKGRFTISRDNSKNTLYLQMNSLRAEDTAVYYCARDLGPSGMDVWGQGTTVTVSS VL: DIQMTQSPSSVSASVGDRVTITCRASQGISSWLAWYQQKPGKAPKLLIYAASSLQSGVPSRFSGSGSGTDFTLTISSLQPEDFATYYCQQANSFPLFGGGTKVEIK	22.2
antibody 281 (antibody, V domains shown) VH: not shown VL: QSALTQPASVSGSPGQSITISCTGTSSDVGSYNLVSWYQQHPGKAPKLMIYEVSKRPSGVSNRFSGSKSGNTASLTISGLQAEDEADYYCCSYAGSSTHVVFGGGTKLTVL	24.3
antibody 301 (antibody, V domains shown) VH: QVQLVQSGAEVKKPGASVKVSCKVSGYTLTELSMHWVRQAPGKGLEWMGGFDPEDGETIYAQKFQGRVTMTEDTSTDTAYMELSSLRSEDTAVYYCATAFCGGDCYPPDALDIWGQGTMVTVSS VL: DIQMTQSPSSVSASVGDRVTITCRASQGISSWLAWYQQKPGKAPKLLIYAASSLQSGVPSRFSGSGSGTDFTLTISSLQPEDFATYYCQQANSFPLTFGGGTKVEIK	29.7
antibody 263 (antibody, V domains shown) VH: EVQLVQSGAEVKKPGATVKISCKVSGYTFTDYYMHWVQQAPGKGLEWMGLVDPEDGETIYAEKFQGRVTITADTSTDTAYMELSSLRSDDTAVYYCTTDLAFTIFGGRRGFDPWGQGTLVTVSS VL: DIQLTQSPSFLSASVGDRVTITCRASQGISSYLAWYQQKPGKAPKLLIYAASTLQSGVPSRFSGSGSGTEFTLTISSLQPEDFATYYCQQLNSYDFGQGTRLEIK	22.5
antibody 288 (antibody, V domains shown) VH: EVQLVESGGGLVQPGGSLRLSCAASGFTFSSYDMHWVRQATGKGLEWVSAIGTAGDTYYPGSVKGRFTISRENAKNSLYLQMNSLRAGDTAVYYCARGANRDYDILTGYYSYYYYGMDVWGQGTTVTVSS VL: not shown	24.3
antibody 273 (antibody, V domains shown) VH: QVQLVQSGAEVKKPGASVKVSCKVSGYTLTELSMHWVRQAPGKGLEWMGGFDPEDGETIYAQKFQGRVTMTEDTSTDTAYMELSSLRSEDTAVYYCATAPGYYDSSAPQPINWFDPWGQGTLVTVSS VL: QSALTQPASVSGSPGQSITISCTGTSSDVGSYNLVSWYQQHPGKAPKLMIYEVSKRPSGVSNRFSGSKSGNTASLTISGLQAEDEADYYCCSYAGSSTLVFGGGTKLTVL	16.9

Molecular target: SARS-CoV-2 full length spike protein, wild type, expressed on the surface of CHO cells (SARS-CoV-2, UniProt P0DTC2 14-1273)

Binder	median fluorescence fold over isotype control [fold over isotype]
antibody 523 (antibody, V domains shown) VH: EVQLVESGGVSVQPGGSLRLSCAASGFSFNTYDMHWVRQGTGKGLEWVSGIGTAGDTYYSDSVKGRCTISRDNAKNSLHLLVKSVRAADTAVYYCARGVGGIIDYWGQGTLVTVSS VL: NFVLSQPHSVSESPGKTVTISCTGNSGSIATKYVQWFQQRPGSAPTTVIYEDNQRPSGVPDRFSGSSDSSSNSASLTISGLKTEDEAHYYCQSYHNRRWVFGGGTKLTVL	5.18
antibody 543 (antibody, V domains shown) VH: EVQLVESGGGLVQPGRSLRLSCAASGFTFHDYAMHWVRQAPGKGLEWVSGISWNSGSIGYADSVKGRFTISRDNAKNSLYLQMNSLRAEDTALYYCAKDTFGSSSWYRGDSYYYYGMDVWGQGTTVTVSS VL: QSALTQPASVSGSPGQSITISCTGTSSDVGGYNYVSWYQQHPGKAPKLMIYEVSNRPSGVSNRFSGSKSGNTASLTISGLQAEDEADYYCSSYTSSSTQRYVVFGGGTKLTVL	13.3
antibody 537 (antibody, V domains shown) VH: QVQLQQWGAGLLKPSETLSLTCAVYGGSFSGYYWSWIRQPPGKGLEWIGEINHSGSTNYNPSLKSRVTISVDTSKNQFSLKLSSVTAADTAVYYCARGLYYDMGGGFDYWGQGTLVTVSS VL: not shown	4.42
antibody 533 (antibody, V domains shown) VH: GVQLVESGGVVVQPGGSLRLSCAASGFSFDDYTMHWVRQAPGKGLEWVSLVSWDGGTTYYTDSVKGRFTISRDNSKNSLYLQMNSLRTEDTALYFCAKDSGRIVPAATFDYWGQGTLVTVSS VL: DIQMTQSSSSLSASVGDRVTITCRASQDISNYLAWFQQKPGKAPKSLIYAASSLQSGVPSKFSGSGSGTDFTLTISSLQPEDFATYYCQQYYTYPLTFGGGTKVEIK	4.31
antibody 546 (antibody, V domains shown) VH: QVQLVESGGGVVQPGRSLRLSCAASGFTFSSYGMHWVRQAPGKGLEWVAVIWYDGSNKYYADSVKGRFTISRDNSKNTLYLQMNSLRAEDTAVYYCARNCGGDCVAGDGFDYWGQGTLVTVSS VL: DIQMTQSPSSLSASVGDRVTITCRASQSISSYLNWYQQKPGKAPNLLIYAASSLQSGVPSRFSGSGSGTDFTLTISSLQPEDFATYYCQQSYSALTWTFGQGTKVEIK	19.3
antibody 536 (antibody, V domains shown) VH: QVQLVESGGGVVQPGRSLRLSCAASGFTFSSYVMHWVRQAPGKGLEWVALISYDGSNKYYADSVKGRFTISRDNSKNTLYLQMNSLRAEDTAVYYCARGGHIRVGRYFDWLISYFDYWGQGTLVTVSS VL: not shown	2.36
antibody 522 (antibody, V domains shown) VH: EVQLVESGGGLVQPGGSLRLSCAASGFNFSSYSMNWVRQAPGKGLEWVSYISSSSSTIYYADSVKGRFTISRDNAKNSLYLQMNSLRDEDTAVYYCARGPEWDIVVVQAENWFDPWGQGTLVTVSS VL: SYELTQPPSVSVSPGQTARITCSGDALPKQYVYWYQQKPGQAPVLVIYKDSERPSGIPERFSGSSSGTTVTLTISGVQAEDEADYYCQSADSSGTYRGVFGGGTKLTVL	9.18
antibody 527 (antibody, V domains shown) VH: QLQLQESGPGLVKPSETLSLTCTVSGGSISSSSYYWGWIRQPPGKGLEWIGSIYYSGSTYYNPSLKSRVTISVDTSKNQFSLKLSSVTAADTAMYYCASHVVVIASSYWCFDLWGRGTLVTVSS VL: QSALTQPASVSGSPGQSITISCTGTSSDVGGYNYVSWYQQHPGKAPKLMIYDVSNRPSGVSNRFSGSKSGNTASLTISGLQAEDEADYYCSSYTSISTWVFGGGTKLTVL	10.4
antibody 541 (antibody, V domains shown) VH: QVQLVQSGAEVKKPGASVKVSCKASGYTFTSYYVHWVRQAPGQSLEWMGVISPSTGSTTYAQNFQGRVTMTRDTSTTTVYMELSSLRSEDTAVYYCARDDYYDSTRYFDLWGRGTLVTVSS VL: not shown	1.1
